Four molecules from article doi:10.1101/2025.05.22.655646 (bioRxiv, 2025) can be followed below.

The labels stand for the following.
B1: G001_LD_07A_VRC01c_58 (antibody, V domains shown)
VH: QVQLVQSGAEVRKPGASVKVSCKASGYTFTDYYIHWVRQAPGQGLEWMGWINPNSGGTNYAQKFQGWVTMTRDTSISTAHMELRRLRSDDRAVYYCARGVVHSGFEFGYWGQGTLVTVSS
VL: DIQMTQSPSTLSASVGDRVTITCRASQSISNWLAWYQQKPGKAPKLLIYKASSLESGVPSRFSGSGSGTEFTLTISSLQPDDFATYYCQQYETFGQGTKVEIK
notes: also called G001-58
B2: G001_gp1_V10_VRC01c_179 (antibody, V domains shown)
VH: QVQLVQSGADVKKPGASVKVSCKASGYTFTDYYMHWVRQAPGQGLEWMGWINPNSGGTNYAQKFQDRVTMTRDTSVSTAYMEVSGLRSDDTAVYYCARIKLCNGGSCNWSLGYWGQGSLVTVSS
VL: DIQMTQSPSSLSASVGDRVTITCQASQDISNYLNWYQQKPGKAPKLLIYGASNLETGVPSRFSGSGSGTDFTFTISSLQPEDIATYYCQQYEFFGPGTKVDIK
notes: also called G001-179
B3: G001_LD_07A_VRC01c_59 (antibody, V domains shown)
VH: QVQLVQSGAEVKKPGTSVKVSCKASEYTFTGYYVHWVRQAPGQGLEWMGWINPNSGGTNYAQKFQGWVTMTRDTSISTAYMELSRLKSDDTAVYYCARSDYISSWYFGYWGQGTLVTVSS
VL: EIVMTQSPATLSVSPGERATLSCRASQSVSSNLAWYQQKPGQAPRLLIYGTSTRATGIPARFSGSGSGTEFTLTISSLQSEDFAVYYCQQYETFGQGTKVEIK
notes: also called G001-59
B4: G001_gp1_V10_VRC01c_2021-0087 (antibody, V domains shown)
VH: QVQLVQSGAEVKKPGASVKVSCKASGYTFTGNYIHWVRQAPGQGLEWVGWLNPNSGGTNYAQQFQGRVTMTRDTSISTAYMELNRLRSDDTAVFYCARGLWQWEFRYWGQGTLVTVSS
VL: DIVLTQSPGTLSLSPGERATLSCRASQSVSSSNLAWYQQKPGQAPRLLIYGASSRATGIPDRFSGSGSGTDFTLTISRLEPEDCAVYYCQQYEGFGGGTKVEIK
notes: also called G001-0087

This test concerns the target T1, eOD-GT8 (Human immunodeficiency virus 1, …).
T1 construct: also called engineered outer domain germline-targeting version 8; eOD-GT8 monomer
The test is described as follows: SPR; monoclonal IgGs and eOD-GT8; as previously described (ref. 19). The conditions noted are these: both partners purified. Background: In SPR one partner is held on a chip, and binding of the other changes the refractive index at the surface.
By Kd is commonly meant the concentration at which binding is half-saturated. A higher Kd goes with a looser complex. In turn, B1 showed a Kd of 0.437 nM.

The molecule B2 displayed a Kd of 0.13 nM.

Take B3: the Kd turned out to be 1.76 nM. This Kd is about 14-fold higher than that of the molecule before.

Turning to B4, the Kd stood at 0.15 nM. Compared with the last molecule, the Kd is about 12-fold lower.
